Laboratory results: patent US20190185546A1

Legend:
[1] = molecular target: HSV-1 (Herpes Simplex Virus type 1; antigen recognised not identified) (Herpes simplex virus 1); assay: cell-based or functional assay
[2] = molecular target: HSV-2 (Herpes Simplex Virus type 2; antigen recognised not identified) (Herpes simplex virus 2); assay: cell-based or functional assay

B1: Fab Ex2 (IgG1 Fab format) (Fab, V domains shown)
VH: LESGGGVVQPGRSLRLSCAASGFTFTTFAMHWVRQAPGKGLEWLAFISYDGSNKYYADSVKGRFTISRDNSKNTLYLQMNSLRAEDTSIYYCAREVWNYADYWGQGALVTVSS
VL: ELTQSPGTLSSSPGHRATLSCKASAPLGSNHMAWYQQKPGQAPRLLIYGASTRATGVPARFTGSGSGTDFTLTISSLQPEDFATYYCQQANSFPRTFGQGTKVEIK
B1 was tested, and the IC50 (neutralization, IIF infection foci count, InCellAnalyzer) [1] was 0.7 µg/mL and the IC50 (neutralization, IIF infection foci count, InCellAnalyzer) [2] was 0.2 µg/mL.
